In the test the target is TNFα (Examples 10 and 11). Nature of the test: cell-based or functional assay.

Regarding “TNFR2-Fc-Dectin2 chimeric protein (Examples 10 and 11) (Fc fusion; the values are: fold reduction in SEAP activity)”, the SEAP activity (NFκB/AP-1 reporter) in HEK-Blue Dectin2 cells, reduction against TNFα plus irrelevant protein is over 20 fold.

“TNFR2-Fc-Clec7a chimeric protein (Examples 10 and 11) (Fc fusion; the values are: fold reduction in SEAP activity)”: the SEAP activity (NFκB/AP-1 reporter) in HEK-Blue Dectin2 cells, reduction against TNFα plus irrelevant protein is 4 fold.

Values taken from patent publication US20260139030A1.
